From patent US10941182 (Amgen, dated 2021)
Starred links: 1 amine or outer side, 2 acyl side, 3 side chain; linkers in the order of their positions; H or OH if unused. Non-standard residues stand in square brackets, D forms with d. Primed or numbered codes have the meaning given here. *: point of attachment. Oic = O=C(O)[C@@H]1C[C@@H]2CCCC[C@@H]2N1; Phe(4-Cl) = N[C@@H](Cc1ccc(Cl)cc1)C(=O)O; γGlu = O=C(O)[C@H](CCC(=O)[*:2])N[*:1]; d(β3hF) = N[C@@H](CC(=O)O)Cc1ccccc1; NMeR = CN[C@@H](CCCNC(=N)N)C(=O)O; Palmitoyl = CCCCCCCCCCCCCCCC(=O)*; Tridecanoyl = CCCCCCCCCCCCC(=O)*; hArg = N=C(N)NCCCC[C@H](N)C(=O)O; Cha = N[C@@H](CC1CCCCC1)C(=O)O; αMeP = C[C@@]1(C(=O)O)CCCN1; AC4Abu″ = not defined here; β3hP = O=C(O)C[C@@H]1CCCN1; αMeS = C[C@](N)(CO)C(=O)O; Nle = CCCC[C@H](N)C(=O)O; AMEF = not defined here; AEEA = NCCOCCOCC(=O)O; Aib = CC(C)(N)C(=O)O

T1: human APJ receptor (human, UniProt P35414 1-380)
T1 sequence (looked up): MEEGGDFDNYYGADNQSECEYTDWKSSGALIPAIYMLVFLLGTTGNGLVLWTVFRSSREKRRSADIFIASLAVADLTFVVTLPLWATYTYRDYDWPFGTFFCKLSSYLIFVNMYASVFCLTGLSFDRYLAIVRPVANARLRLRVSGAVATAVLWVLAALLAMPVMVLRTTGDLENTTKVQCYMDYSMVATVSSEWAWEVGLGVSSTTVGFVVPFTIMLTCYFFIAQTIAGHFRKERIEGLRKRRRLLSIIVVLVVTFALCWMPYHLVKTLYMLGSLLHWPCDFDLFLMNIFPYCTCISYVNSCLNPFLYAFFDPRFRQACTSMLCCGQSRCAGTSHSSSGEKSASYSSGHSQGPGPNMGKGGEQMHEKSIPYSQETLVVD

T2: rat APJ receptor (rat, UniProt Q9JHG3 1-377)
T2 sequence (looked up): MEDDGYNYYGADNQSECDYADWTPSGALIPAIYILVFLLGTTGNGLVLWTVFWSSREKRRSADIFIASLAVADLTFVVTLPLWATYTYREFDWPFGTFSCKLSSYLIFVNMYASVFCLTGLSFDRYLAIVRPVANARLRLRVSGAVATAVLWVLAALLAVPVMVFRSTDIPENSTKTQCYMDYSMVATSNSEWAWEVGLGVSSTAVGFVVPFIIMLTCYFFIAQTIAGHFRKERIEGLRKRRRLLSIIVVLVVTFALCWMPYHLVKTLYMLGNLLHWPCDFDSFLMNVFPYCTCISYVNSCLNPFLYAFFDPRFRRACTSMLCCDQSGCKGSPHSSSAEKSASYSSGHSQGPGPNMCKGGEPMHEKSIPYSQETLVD

T3: human APJ receptor (human, UniProt P35414 1-380)
T3 sequence (looked up): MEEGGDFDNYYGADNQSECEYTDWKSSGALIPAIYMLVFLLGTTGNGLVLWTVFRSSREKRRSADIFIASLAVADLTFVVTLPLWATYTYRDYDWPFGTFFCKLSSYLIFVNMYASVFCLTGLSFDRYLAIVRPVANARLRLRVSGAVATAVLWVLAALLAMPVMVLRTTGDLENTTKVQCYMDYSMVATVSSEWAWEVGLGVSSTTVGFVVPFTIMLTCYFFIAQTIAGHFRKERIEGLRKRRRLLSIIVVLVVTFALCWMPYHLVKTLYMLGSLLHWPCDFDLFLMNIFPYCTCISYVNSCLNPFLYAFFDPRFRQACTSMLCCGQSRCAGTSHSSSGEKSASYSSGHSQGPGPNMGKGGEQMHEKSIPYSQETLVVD

T4: rat APJ receptor (rat, UniProt Q9JHG3 1-377)
T4 sequence (looked up): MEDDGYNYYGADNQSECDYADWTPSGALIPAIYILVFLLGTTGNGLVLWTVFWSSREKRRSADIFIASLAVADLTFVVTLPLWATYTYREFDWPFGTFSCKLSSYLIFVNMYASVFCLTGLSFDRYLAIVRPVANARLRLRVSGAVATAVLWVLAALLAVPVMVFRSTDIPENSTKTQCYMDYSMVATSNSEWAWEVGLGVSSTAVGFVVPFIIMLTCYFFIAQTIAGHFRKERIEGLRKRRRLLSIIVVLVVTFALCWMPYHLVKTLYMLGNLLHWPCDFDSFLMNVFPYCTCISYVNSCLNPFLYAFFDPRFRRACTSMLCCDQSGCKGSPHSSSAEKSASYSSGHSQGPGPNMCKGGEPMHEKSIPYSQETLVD


Tests used:
Experiment in all cases: cell-based or functional assay
human APJ receptor [1] = biological target: T1, human APJ receptor
rat APJ receptor [2] = biological target: T2, rat APJ receptor
human APJ receptor [3] = biological target: T3, human APJ receptor; remark: listed apart in the source
rat APJ receptor [4] = biological target: T4, rat APJ receptor; remark: listed apart in the source

| Binder | EC50 Human APJ Receptor (human APJ receptor [1]) [pM] | EC50 Rat APJ Receptor (GTPγS assay) (rat APJ receptor [2]) [pM] | EC50 Human APJ Receptor (GTPγS assay) (human APJ receptor [3]) [pM] | EC50 Rat APJ Receptor (rat APJ receptor [4]) [pM] |
| --- | --- | --- | --- | --- |
| Palmitoyl-[AC4Abu″][AEEA][AEEA][dQ]RP[NMeR][Cha]SHKG[Oic][Nle]P[AMEF]-OH (reading uncertain) [SEQ ID NO: 606] | 307 | – | – | – |
| Tridecanoyl-[γGlu][AEEA][AEEA][dQ]RP[NMeR][Cha]SHKG[αMeP][Nle][Aib][Phe(4-Cl)]-OH (SMILES CCCCCCCCCCCCC(=O)N[C@@H](CCC(=O)NCCOCCOCC(=O)NCCOCCOCC(=O)N[C@H](CCC(N)=O)C(=O)N[C@@H](CCCNC(=N)N)C(=O)N1CCC[C@H]1C(=O)N(C)[C@@H](CCCNC(=N)N)C(=O)N[C@@H](CC1CCCCC1)C(=O)N[C@@H](CO)C(=O)N[C@@H](Cc1c[nH]cn1)C(=O)N[C@@H](CCCCN)C(=O)NCC(=O)N1CCC[C@@]1(C)C(=O)N[C@@H](CCCC)C(=O)NC(C)(C)C(=O)N[C@@H](Cc1ccc(Cl)cc1)C(=O)O)C(=O)O) [Apelin polypeptide SEQ ID NO: 498] | – | 138 | 29.9 | – |
| XXXQRPRLSHKGPXPF ({Decanoyl}[AC4Abu][Aeea][Aeea]QRP[NMeArg]LSHKGP[Nle]P[4-Cl-F]{COOH}) [SEQ ID NO: 494] | 22.1 | – | – | – |
| Ac-[hArg]Q[hArg]P[NMeR][Cha]SHKG[Oic][Nle]P[Phe(4-Cl)]-OH [SEQ ID NO: 60] | 224 | – | – | 4480 |
| Tridecanoyl-[γGlu][AEEA][AEEA][dQ]RP[NMeR][Cha]SHKG[Oic][Nle]P[Phe(4-Cl)]-OH (SMILES CCCCCCCCCCCCC(=O)N[C@@H](CCC(=O)NCCOCCOCC(=O)NCCOCCOCC(=O)N[C@H](CCC(N)=O)C(=O)N[C@@H](CCCNC(=N)N)C(=O)N1CCC[C@H]1C(=O)N(C)[C@@H](CCCNC(=N)N)C(=O)N[C@@H](CC1CCCCC1)C(=O)N[C@@H](CO)C(=O)N[C@@H](Cc1c[nH]cn1)C(=O)N[C@@H](CCCCN)C(=O)NCC(=O)N1[C@H](C(=O)N[C@@H](CCCC)C(=O)N2CCC[C@H]2C(=O)N[C@@H](Cc2ccc(Cl)cc2)C(=O)O)C[C@@H]2CCCC[C@@H]21)C(=O)O) [Apelin polypeptide SEQ ID NO: 377] | – | 447 | 388 | – |
| Palmitoyl-[AC4Abu″][AEEA][AEEA][dQ]RP[NMeR][Cha][αMeS]HKG[Oic][Nle][β3hP][d(β3hF)]-OH (reading uncertain) [SEQ ID NO: 642] | 332 | – | – | – |
| Tridecanoyl-[γGlu][AEEA][AEEA][dQ]RP[NMeR][Cha]SHKG[αMeP][Nle][β3hP][Phe(4-Cl)]-OH (SMILES CCCCCCCCCCCCC(=O)N[C@@H](CCC(=O)NCCOCCOCC(=O)NCCOCCOCC(=O)N[C@H](CCC(N)=O)C(=O)N[C@@H](CCCNC(=N)N)C(=O)N1CCC[C@H]1C(=O)N(C)[C@@H](CCCNC(=N)N)C(=O)N[C@@H](CC1CCCCC1)C(=O)N[C@@H](CO)C(=O)N[C@@H](Cc1c[nH]cn1)C(=O)N[C@@H](CCCCN)C(=O)NCC(=O)N1CCC[C@@]1(C)C(=O)N[C@@H](CCCC)C(=O)N1CCC[C@H]1CC(=O)N[C@@H](Cc1ccc(Cl)cc1)C(=O)O)C(=O)O) [Apelin polypeptide SEQ ID NO: 545] | – | 3700 | 1300 | – |
| XXXQRPRLSHKGPXPF ({hexanoyl}[AC4Abu][Aeea][Aeea]QRP[NMeArg]LSHKGP[Nle]P[4-Cl-F]{COOH}) [SEQ ID NO: 492] | 37.5 | – | – | – |
